Measured values taken from patent US10737081B2, “Painless and patchless shooting microstructure” (JUVIC INC., priority 2013, dated 2020).

How the values were obtained:
diabetogenic mice = assay: In vivo delivery efficiency test: plasma glucose levels in diabetogenic mice; conditions: 0.2 IU insulin, subcutaneous injection
Method: In this experiment, male C57BL/6 mice (7 to 8 week-old, OrientBio) were used. Animal experiments were conducted according to the Guide for the Care and Use of Laboratory Animals by the Severance Hospital Ethics Committee (Reference No.: 09-013, College of Pharmacy, Yonsei University, Korea). […] For successful diabetes induction, the blood glucose concentrations of all the mice were measured using a OneTouch Verio IQ system. […] Diabetogenic mice were divided into four groups, as follows: (a) an untreated group (a negative control); (b) a subcutaneously injected group (0.2 IU, a positive control); […] The mice were fasted during an experiment period, and freely fed with water. […] After 6 hours of the treatment, blood samples (0.1 ml) were taken from wounded tail vein areas every one hour. […] The plasma glucose levels per hour in each group were measured using a glucose CII-Test kit. The plasma insulin concentrations were measured using an insulin ELISA kit (ALPCO). To examine the in vivo delivery efficiency by DMN patch and subcutaneous injection (SC) methods and through the microlancer, insulin was administered to diabetogenic mice using each of the methods, and changes in blood glucose levels were measured. […] Insulin was administered using each of the methods, and changes in plasma glucose levels in the diabetogenic mice were measured after the elapse of 6 hours (see FIG. 17B).

[1] = In vivo delivery efficiency test: plasma insulin concentrations in diabetogenic mice; conditions: 0.2 IU insulin, subcutaneous injection
Method: In this experiment, male C57BL/6 mice (7 to 8 week-old, OrientBio) were used. Animal experiments were conducted according to the Guide for the Care and Use of Laboratory Animals by the Severance Hospital Ethics Committee (Reference No.: 09-013, College of Pharmacy, Yonsei University, Korea). The mice were anesthetized with Avertin (2,2,2-tribromoethanol, Sigma-Aldrich), and 50 mg/kg of streptozotocin in a sodium citrate buffer (pH=4.5) was intravenously injected into the mice to induce diabetes. For successful diabetes induction, the blood glucose concentrations of all the mice were measured using a OneTouch Verio IQ system.
Diabetogenic mice were divided into four groups, as follows: (a) an untreated group (a negative control); (b) a subcutaneously injected group (0.2 IU, a positive control); (c) a patch-treated group (0.2 IU insulin-loaded DMNs); and (d) a microlancer-treated group (0.2 IU insulin-loaded DMNs) (n=5 per group). The mice were fasted during an experiment period, and freely fed with water. The back regions of the mice were shaved using an electric shaver, and 0.2 IU of insulin was administered by means of a DMN patch through a microlancer or by subcutaneous injection. […] The plasma glucose levels per hour in each group were measured using a glucose CII-Test kit. The plasma insulin concentrations were measured using an insulin ELISA kit (ALPCO).

Substance: insulin: Humalog insulin purchased from Eli Lilly; 0.2 IU subcutaneously injected as positive control
- time of lowest blood glucose level compared to insertion through the microlancer (diabetogenic mice): an hour earlier
- maximum plasma insulin concentration [1]: 156 μIU/ml
- time of peaks for the plasma insulin concentration [1]: an hour
